From US7422862B2, “Methods for identifying modulators of apoptosis” (The Burnham Institute, priority 2001, dated 2008)
No end group written: not given here.

Legend:
Bcl-XL = Bcl-XL (Homo sapiens, UniProt Q07817); experiment: Fluorescence polarization assay, Bcl-XL specificity control; type: binding
endogenous Bax protein = experiment: Subcellular fractionation and immunoblot of endogenous Bax after STS; type: cell-based; details: Cos7 cells, untagged peptides, STS
Procedure: (A-B) Humanin peptide prevents STS-induced Bax translocation in vivo. Cos-7 cells were first transfected with GFP-Bax plasmids. After 24 hrs, untagged wild-type or C8P mutant Humanin peptides were introduced into cells using ChariotTM reagent, and 2 h later cells were treated with 1 μM STS. After 4 h, the percentage of cells with translocated Bax was determined (mean±SD; n=3) by confocal microscopy (A) and representative photomicrographs (B). (C) Wild-type or C8P mutant Humanin peptides were introduced into Cos7 cells using ChariotTM reagent. Cytosolic (C) and mitochondria-containing (M) fractions were isolated by differential centrifugation 23 and analyzed by immunoblotting using anti-Bax (top), Hsp60 (middle) (mitochondrial marker), or Tubulin (bottom) (cytosol marker) antibodies. (D) HN or mutant control double-strand siRNAs were transfected into SF268 cells. After 48 h, cells were cultured without (Control) or with 0.1 uM STS. After 24 hr, cells were fractionated and analyzed by immunoblotting as above. […] After 3 h at 30° C., mitochondria were centrifuged and the resulting pellets (P) and supernatants (S) were analyzed by immunoblotting using anti-Cytochrome c (top), Hsp60 (middle), and Bax (bottom) antibodies. […]
These findings were also confirmed by subcellular fractionation, where cytosol and mitochondria-enriched heavy membrane preparations were prepared from Cos7 cells transduced with untagged Humanin or Humanin(C8P) peptides, and the relative amounts of endogenous Bax protein in these two fractions were measured by immunoblot analysis of samples normalized for cell-equivalents. […] Differences in the relative potency of Humanin at blocking Bax translocation as measured by microscopy (FIG. 7A) versus cell fractionation methods (FIG. 7C) can be explained by differences in the sensitivity of the assays, or could possibly indicate that even in cells where some Bax translocation has occurred, less of the total Bax protein associated with mitochondria. […]

GFP-Bax = biological target: T1, GFP-Bax (Homo sapiens, UniProt Q07812); experiment: STS-induced GFP-Bax translocation to mitochondria in Cos7 cells (confocal microscopy); type: cell-based; details: peptide transduced with Chariot, 1 μM STS
T1 construct: expressed in transfected cells; host or cells: Cos-7
T1 sequence (Q07812 whole entry): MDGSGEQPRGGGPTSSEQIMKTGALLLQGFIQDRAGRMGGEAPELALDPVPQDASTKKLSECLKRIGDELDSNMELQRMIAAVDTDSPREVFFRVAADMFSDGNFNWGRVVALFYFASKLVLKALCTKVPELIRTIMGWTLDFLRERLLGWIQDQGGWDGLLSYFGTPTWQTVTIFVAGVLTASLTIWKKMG
Procedure: (§1) (A-B) Humanin peptide prevents STS-induced Bax translocation in vivo. Cos-7 cells were first transfected with GFP-Bax plasmids. After 24 hrs, untagged wild-type or C8P mutant Humanin peptides were introduced into cells using ChariotTM reagent, and 2 h later cells were treated with 1 μM STS. After 4 h, the percentage of cells with translocated Bax was determined (mean±SD; n=3) by confocal microscopy (A) and representative photomicrographs (B). (C) Wild-type or C8P mutant Humanin peptides were introduced into Cos7 cells using ChariotTM reagent. Cytosolic (C) and mitochondria-containing (M) fractions were isolated by differential centrifugation 23 and analyzed by immunoblotting using anti-Bax (top), Hsp60 (middle) (mitochondrial marker), or Tubulin (bottom) (cytosol marker) antibodies. (D) HN or mutant control double-strand siRNAs were transfected into SF268 cells. After 48 h, cells were cultured without (Control) or with 0.1 uM STS. After 24 hr, cells were fractionated and analyzed by immunoblotting as above. (E) Isolated mitochondria were mixed with 400 ng Bax protein, with or without preincubating Bax with 100 uM Humanin or Humanin(C8P) peptides for 10 min. After 3 h at 30° C., mitochondria were centrifuged and the resulting pellets (P) and supernatants (S) were analyzed by immunoblotting using anti-Cytochrome c (top), Hsp60 (middle), and Bax (bottom) antibodies. […]

Bax = experiment: Bax-induced lethality in yeast; type: cell-based, S. cerevisiae; details: TAD-fusion polypeptide, galactose-induced Bax
BaxΔTM = biological target: T2, BaxΔTM (Homo sapiens, UniProt Q07812); experiment: Co-immunoprecipitation of BaxΔTM with GFP-TM(Bax); type: binding; details: lysates pre-incubated with peptide
T2 construct: a C-terminally truncated Bax protein (residues 1-169) (BaxΔTM); expressed in transfected cells; host or cells: HEK293T (lysates mixed in vitro)
T2 sequence (Q07812 1-169, stated change not applied): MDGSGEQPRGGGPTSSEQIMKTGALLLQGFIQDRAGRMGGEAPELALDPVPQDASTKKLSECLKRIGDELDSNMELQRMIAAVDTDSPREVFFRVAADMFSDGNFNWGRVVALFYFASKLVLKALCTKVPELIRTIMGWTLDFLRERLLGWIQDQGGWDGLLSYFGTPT
T2 sequence (Q07812 170-192 partner limits assumed): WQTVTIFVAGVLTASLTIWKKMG
Procedure: as §1

purified recombinant Bax [1] = biological target: T3, purified recombinant Bax (Homo sapiens, UniProt Q07812); experiment: Isolated mitochondria: Bax association and cytochrome c release assay; type: biochemical; details: 100 μM peptide preincubated with Bax, HCT116 mitochondria
T3 sequence (Q07812 whole entry): as the sequence (Q07812 whole entry) above
Procedure: (A-B) Humanin peptide prevents STS-induced Bax translocation in vivo. Cos-7 cells were first transfected with GFP-Bax plasmids. After 24 hrs, untagged wild-type or C8P mutant Humanin peptides were introduced into cells using ChariotTM reagent, and 2 h later cells were treated with 1 μM STS. After 4 h, the percentage of cells with translocated Bax was determined (mean±SD; n=3) by confocal microscopy (A) and representative photomicrographs (B). (C) Wild-type or C8P mutant Humanin peptides were introduced into Cos7 cells using ChariotTM reagent. Cytosolic (C) and mitochondria-containing (M) fractions were isolated by differential centrifugation 23 and analyzed by immunoblotting using anti-Bax (top), Hsp60 (middle) (mitochondrial marker), or Tubulin (bottom) (cytosol marker) antibodies. (D) HN or mutant control double-strand siRNAs were transfected into SF268 cells. After 48 h, cells were cultured without (Control) or with 0.1 uM STS. After 24 hr, cells were fractionated and analyzed by immunoblotting as above. (E) Isolated mitochondria were mixed with 400 ng Bax protein, with or without preincubating Bax with 100 uM Humanin or Humanin(C8P) peptides for 10 min. After 3 h at 30° C., mitochondria were centrifuged and the resulting pellets (P) and supernatants (S) were analyzed by immunoblotting using anti-Cytochrome c (top), Hsp60 (middle), and Bax (bottom) antibodies. (F) HN peptide enforces the interaction of Bax TM domain with Bax.TM. Lysates from HEK293T cells expressing Flag-Bax.TM were pretreated with or without Humanin or Humanin(C8P) peptides. Lysates were then mixed in vitro with lysates of HEK293T cells expressing GFP-TM(Bax). Immunoprecipitations were performed with anti-Flag antibody, analyzing lysates and immunoprecipitates (IP) by immunoblotting using monoclonal anti-GFP antibody.
To determine whether Humanin can act directly on Bax, the effects of Humanin on isolated mitochondria were tested. Addition of recombinant purified Bax protein to mitochondria in vitro induces cytochrome c release (Jurgensmeier et al., Proc. Natl. Acad. Sci. USA 95:4997-5002 (1998)). […] Therefore Humanin can directly suppress Bax targeting to mitochondria, without requirement for intact cells.
Cytochrome c release assays were performed as follows. Mitochondria were isolated from HCT116 cells by differential centrifugation as described above. Purified recombinant human Bax protein (400 ng for each sample) was pre-incubated with or without 100 μM synthetic Humanin peptide or mutant Humanin (C8P) peptide for 10 min at 4° C. The untreated or peptide pre-treated Baxprotein samples were then mixed with equal amount of HCT116 mitochondria (in a volume of 40 μl) at 30° C. for 3 hours. […]

purified recombinant Bax [2] = biological target: T3, purified recombinant Bax; experiment: Fluorescence polarization assay (FPA) of rhodamine-labelled peptide binding to Bax; set-up: full-length Bax protein was produced in bacteria and purified; made in house; host or cells: E. coli BL21; details: rhodamine-labelled control peptides
Procedure: (C) The affinity (Kd) of Bax/HN interaction was measured by fluorescence polarization assay, using various concentrations of purified recombinant Bax and 40 nM rhodamine-conjugated HN peptide. Control peptide from CD40 is also shown (mean +Std Dev; n=3).
In this example, the in vitro binding assay is a fluorescence polarization assay (FPA). For this experiment, full-length Bax protein was produced in bacteria and purified. Various concentrations of Bax protein were incubated with 40 nM of rhodamine-conjugated synthetic purified Humanin peptide. The extent of peptide binding was then monitored by measuring polarization of monochromatic light passed through the sample, where peptide binding to the bulkier protein slows the rate of peptide tumbling in solution, enhancing the polarization effect.
Fluorescence Polarization Assays were performed as follows. Recombinant Bax protein was isolated from E. coli BL21 harboring pTYB1-Bax essentially as described (Suzuki et al., Cell 103:645-654 (2000)). For fluorescence polarization assays (FPA), various concentrations of Bax protein were incubated with 40 nM of rhodamine-conjugated synthetic purified Humanin peptide dissolved in water for 30 minutes in dark. Fluorescence polarization was measured using an AnalystTM AD Assay Detection System (LJL Biosystem, Sunnyvale, Calif.).

Bcl-XL, sequence (Q07817 whole entry, species assumed): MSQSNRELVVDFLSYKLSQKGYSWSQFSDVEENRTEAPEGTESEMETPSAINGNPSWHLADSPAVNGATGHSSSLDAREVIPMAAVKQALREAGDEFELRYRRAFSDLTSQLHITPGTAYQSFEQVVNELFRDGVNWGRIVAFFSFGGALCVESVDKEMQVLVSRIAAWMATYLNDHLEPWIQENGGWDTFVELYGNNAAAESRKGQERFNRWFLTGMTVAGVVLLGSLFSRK

Molecule: CC[C@H](C)[C@H](NC(=O)[C@H](CCC(=O)O)NC(=O)[C@H](CO)NC(=O)[C@@H](NC(=O)[C@H](CC(C)C)NC(=O)[C@H](CC(C)C)NC(=O)[C@H](CC(C)C)NC(=O)[C@H](CC(C)C)NC(=O)[C@H](CS)NC(=O)[C@H](CO)NC(=O)[C@H](Cc1ccccc1)NC(=O)CNC(=O)[C@H](CCCNC(=N)N)NC(=O)[C@@H]1CCCN1C(=O)[C@H](C)NC(=O)[C@H](CCSC)NC(=O)CCCCCNC(=O)c1ccccc1-c1c2ccc(=[N+](CC)CC)cc-2oc2cc(N(CC)CC)ccc12)[C@@H](C)O)C(=O)N[C@@H](CC(=O)O)C(=O)N[C@@H](CC(C)C)C(=O)N1CCC[C@H]1C(=O)N[C@H](C(=O)N[C@@H](CCCCN)C(=O)N[C@@H](CCCNC(=N)N)C(=O)N[C@@H](CCCNC(=N)N)C(=O)N[C@@H](C)C(N)=O)C(C)C [rhodamine-HN]
- binding to Bcl-XL in fluorescence polarization assay (Bcl-XL): did not bind

Molecule: Humanin(C8P): synthetic Humanin peptide (or TAD-fusion in yeast) with C8P mutation, non-Bax-binding (MAPRGFSPLLLLTSEIDLPVKRRA; UniProt Q8IVG9 1-24, looked up, variant C8P)
- Bax translocation by subcellular fractionation (endogenous Bax protein): no effect
- suppression of GFP-Bax translocation (GFP-Bax): not
- rescue of yeast from Bax-induced lethality (Bax): did not rescue
- interaction of BaxΔTM with GFP-TM (BaxΔTM): did not promote
- Bax association with mitochondria (purified recombinant Bax [1]): did not interfere
- cytochrome c release (purified recombinant Bax [1]): did not interfere

Molecule: rhodamine-CD40: rhodamine-labelled control peptide from CD40 (residue 250P to 266G) (PVQETLHGCQPVTQEDG; also: rhodamine label; UniProt P25942 250-266, looked up, fragment)
- interaction with Bax in fluorescence polarization assay (purified recombinant Bax [2]): did not display interactions
